Measured values reported in patent publication US20230025732A1 (INNATE PHARMA, published 2023).
Residue numbers refer to the chain shown, from its start. In names and notes the source's numbering stands.

B1: mAb2 H0L1 (antibody, human IgG1, V domains shown)
VH: QVQLVQSGAEVKKPGASVKVSCKASGYTFTDYNMHWVRQAPGQRLEWMGYIVPLNGGSTFNQKFKGRVTITRDTSASTAYMELSSLRSEDTAVYYCARGGTRFAYWGQGTLVTVSS
VL: DIVMTQSPDSLAVSLGERATINCRASESVDNFGVSFMYWFQQKPGQPPKLLIYGASNQGSGVPDRFSGSGSGTDFTLTISSLQAEDVAVYYCQQTKEVPYTFGGGTKVEIK
B2: mAb20 H4L1 (antibody, human IgG1, kappa, V domains shown)
VH: B1 VH with M48I, V68A, R72V, S77R
VL: DIVMTQSPDSLAVSLGERATINCRASESVDNFGVSFMYWFQQKPGQPPKLLIYGASNQGSGVPDRFSGSGSGTDFTLTISSLQAEDVAVYYCQQTKEVPYTFGGGTKVEIKR
notes: full heavy chain carries L234A/L235E/G237A/A330S/P331S
B3: mAb17 H3*L1 (antibody, human IgG1, V domains shown)
VH: B1 VH with M48I, N61S, K65Q, V68A, R72V
VL: B1 VL
B4: mAb11 H2*L1 (antibody, human IgG1, V domains shown)
VH: B1 VH with N61S, V68A, R72V
VL: B1 VL

What was measured:
[1] = target: T1, human CD39 expressed at the cell surface (human, UniProt P49961 1-510); experiment: flow cytometry, CHO cells expressing human CD39
T1 construct: On CHO transfectants, Hek-293T transfectants, Ramos and Mino tumor cells; also called huCD39; CHO-huCD39
T1 sequence: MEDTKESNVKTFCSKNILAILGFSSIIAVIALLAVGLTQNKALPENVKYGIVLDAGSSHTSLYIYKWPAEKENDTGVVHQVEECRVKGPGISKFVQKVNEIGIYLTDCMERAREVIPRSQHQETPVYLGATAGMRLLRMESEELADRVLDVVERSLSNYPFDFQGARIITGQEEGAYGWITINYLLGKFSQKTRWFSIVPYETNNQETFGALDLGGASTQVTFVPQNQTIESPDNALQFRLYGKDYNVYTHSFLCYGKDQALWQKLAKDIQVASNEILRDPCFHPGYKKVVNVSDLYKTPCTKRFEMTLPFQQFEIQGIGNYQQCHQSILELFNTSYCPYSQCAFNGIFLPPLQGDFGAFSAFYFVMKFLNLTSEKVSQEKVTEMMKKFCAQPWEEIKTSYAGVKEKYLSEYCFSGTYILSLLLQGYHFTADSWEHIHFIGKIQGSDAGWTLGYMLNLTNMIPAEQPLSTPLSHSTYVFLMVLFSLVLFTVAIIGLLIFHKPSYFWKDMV
Experimental: Cells were incubated with various concentration of unlabeled anti-CD39 antibody from 30 μg/ml to 5×10⁻⁴ μg/ml, for 30 minutes at 4° C. After washes, cells were incubated with Goat anti-mouse H+L labeled secondary antibody for 30 min at 4° C.
Antibodies mAb1-21 were assessed for binding to CD39 by flow cytometry as described in Example 7, using CHO cells expressing human CD39 and CHO cells expressing cynomolgus (Macaca fascicularis) CD39.

[2] = target: T1, human CD39 expressed at the cell surface; experiment: flow cytometry titration on Ramos lymphoma cells (Mean of Fluorescence), panel L1

Binder | binding result [1] | EC50 (read off the curve) [2] [µg/mL]
B1 | binds | 
B2 |  | ~0.8
B3 | binds | 
B4 | binds | 
